In the Human Domainome abundance scans (Beltran et al. 2025) one finds abundance fitness data, which are given here for 43 variants.

Sequences and labels used below:
B1: Proto-oncogene vav, residues 782 to 842; numbered along this chain, P15498 (parent)
chain: KYFGTAKARYDFCARDRSELSLKEGDIIKILNKKGQQGWWRGEIYGRVGWFPANYVEEDYS

± gives the uncertainty stated by the source.

The variants in this data set derive from B1. Briefly: abundance fitness (aPCA) (normalised: wild type 0, dead -1); higher = more abundant; growth selection in yeast, the domain comes from the species named. The conditions noted are these: Homo sapiens.
KYFGTAKARYDFCARDRSELGLKEGDIIKILNKKGQQGWWRGEIYGRVGWFPANYVEEDYS [S21G]: the abundance fitness is -0.34 ± 0.09.
KYFGTAKARYDFCARDRSELFLKEGDIIKILNKKGQQGWWRGEIYGRVGWFPANYVEEDYS [S21F]: the abundance fitness was -0.607 ± 0.15.
As for KYFGTAKARYDFCARDRSELSLKEGDIIKILNKKGQQGWWRGEIYGRVMWFPANYVEEDYS [G49M], the figure is -0.907 ± 0.45; as for KYFGTAKARYDFCARDRSELSLKESDIIKILNKKGQQGWWRGEIYGRVGWFPANYVEEDYS [G25S], -0.818 ± 0.12.
As for KYFGTAKARYDFCARDRSELSLKEQDIIKILNKKGQQGWWRGEIYGRVGWFPANYVEEDYS [G25Q], the figure is -0.957 ± 0.41.
As for KYFGTAKARYDFCARDRSESSLKEGDIIKILNKKGQQGWWRGEIYGRVGWFPANYVEEDYS [L20S], the abundance fitness is -0.825 ± 0.13.
As for KYFGTAKARYDFCARDRGELSLKEGDIIKILNKKGQQGWWRGEIYGRVGWFPANYVEEDYS [S18G], the figure is -0.194 ± 0.081; as for KYFGTAKARYDFCARDREELSLKEGDIIKILNKKGQQGWWRGEIYGRVGWFPANYVEEDYS [S18E], -0.277 ± 0.12.
As for KYFGTAKARYDMCARDRSELSLKEGDIIKILNKKGQQGWWRGEIYGRVGWFPANYVEEDYS [F12M], the figure is -0.827 ± 0.28.
For KYFGTAKARYDFCARDRSELSLKEGDIIKILNKKGQQGWWRGEIYGRVGWFPANYVEEDKS [Y60K], the abundance fitness is -0.122 ± 0.19.
As for KYFGTAKARYDFCARDRSELSLKEGDIIKILNKKGQQGWWRGEIYGRVGWFPANYVEEDRS [Y60R], the figure is -0.005 ± 0.073; as for KYFGTAKARYDFCSRDRSELSLKEGDIIKILNKKGQQGWWRGEIYGRVGWFPANYVEEDYS [A14S], -0.237 ± 0.072; as for KYFGTAKAKYDFCARDRSELSLKEGDIIKILNKKGQQGWWRGEIYGRVGWFPANYVEEDYS [R9K], 0.072 ± 0.097.
Consider KYFGTAKARYDFCARDRSELSLKEGDIIKILNKKGQQGWWRGEIYGGVGWFPANYVEEDYS [R47G], for which the abundance fitness is -0.628 ± 0.081.
As for KYFGTAKARYDFCARDRSELSLKEGDIIKILNLKGQQGWWRGEIYGRVGWFPANYVEEDYS [K33L], the figure is -0.929 ± 0.16; as for KYFGLAKARYDFCARDRSELSLKEGDIIKILNKKGQQGWWRGEIYGRVGWFPANYVEEDYS [T5L], -0.099 ± 0.069; as for KYFGYAKARYDFCARDRSELSLKEGDIIKILNKKGQQGWWRGEIYGRVGWFPANYVEEDYS [T5Y], -0.064 ± 0.13.
As for KYFGTAKARYDFCARDRSELSLKEGDPIKILNKKGQQGWWRGEIYGRVGWFPANYVEEDYS [I27P], the figure is -0.557 ± 0.23.
As for KYFGTAKARYDFCARDRSELSLKEGDRIKILNKKGQQGWWRGEIYGRVGWFPANYVEEDYS [I27R], the figure is -0.21 ± 0.076.
In the case of KYFGTAKARYDFCARDRSELSLKEGDIIKILNKKGQQGWWRGEIYGRVGWFPANYREEDYS [V56R], the abundance fitness is -1.03 ± 0.14.
As for KYFGTAKARYDFCARDRSELSLKEGDIIKILNKKGQQGWWRGEIYGRVGWFPANYNEEDYS [V56N], the figure is -0.807 ± 0.33.
Take WYFGTAKARYDFCARDRSELSLKEGDIIKILNKKGQQGWWRGEIYGRVGWFPANYVEEDYS [K1W]: the abundance fitness was -0.474 ± 0.12.
As for KLFGTAKARYDFCARDRSELSLKEGDIIKILNKKGQQGWWRGEIYGRVGWFPANYVEEDYS [Y2L], the figure is -0.323 ± 0.065.
KYFGTAKARYDFCARDRSELSLSEGDIIKILNKKGQQGWWRGEIYGRVGWFPANYVEEDYS [K23S]: the abundance fitness is -0.168 ± 0.078.
Turning to KYFTTAKARYDFCARDRSELSLKEGDIIKILNKKGQQGWWRGEIYGRVGWFPANYVEEDYS [G4T], the abundance fitness is -0.089 ± 0.11.
As for KYFMTAKARYDFCARDRSELSLKEGDIIKILNKKGQQGWWRGEIYGRVGWFPANYVEEDYS [G4M], the figure is -0.164 ± 0.12.
For KYFCTAKARYDFCARDRSELSLKEGDIIKILNKKGQQGWWRGEIYGRVGWFPANYVEEDYS [G4C], the abundance fitness is -0.274 ± 0.14.
As for KYFGTAKARYWFCARDRSELSLKEGDIIKILNKKGQQGWWRGEIYGRVGWFPANYVEEDYS [D11W], the figure is -0.715 ± 0.16; as for KYFGTHKARYDFCARDRSELSLKEGDIIKILNKKGQQGWWRGEIYGRVGWFPANYVEEDYS [A6H], -0.677 ± 0.13.
As for KYFGTAKARYDFLARDRSELSLKEGDIIKILNKKGQQGWWRGEIYGRVGWFPANYVEEDYS [C13L], the figure is -0.058 ± 0.057; as for KYFGTAKARYDFCARDRSELSLKEGDIIKILNKKGQQGWWRGEIYGRHGWFPANYVEEDYS [V48H], -0.405 ± 0.14.
As for KYFGTAKARYDFCARDRSELSLKEGDIIKILNKKGQQGWWRGEIYGRPGWFPANYVEEDYS [V48P], the figure is -0.733 ± 0.12.
With KYFGTAKARYDFCARDRSELSLKEGDIIKILNKKGQQGWWRGEIYGRDGWFPANYVEEDYS [V48D], the abundance fitness was -0.499 ± 0.11.
As for KYFGTAKARYDFCARDRSELSLKWGDIIKILNKKGQQGWWRGEIYGRVGWFPANYVEEDYS [E24W], the figure is -0.92 ± 0.25; as for KYFGTAKARYDFCARDRSSLSLKEGDIIKILNKKGQQGWWRGEIYGRVGWFPANYVEEDYS [E19S], -0.417 ± 0.094; as for KYFGTAKARYDFCARDRSTLSLKEGDIIKILNKKGQQGWWRGEIYGRVGWFPANYVEEDYS [E19T], -0.838 ± 0.19.
On to KYFGTAKARYDFCARDRSHLSLKEGDIIKILNKKGQQGWWRGEIYGRVGWFPANYVEEDYS [E19H], for which the abundance fitness was -0.137 ± 0.21.
As for KYFGTAKARYDFCARDRSELSLKEGDIIKILNKKGNQGWWRGEIYGRVGWFPANYVEEDYS [Q36N], the figure is -0.248 ± 0.22.
As for KYFGTAKARYDFCARDRSELSLKEGDIIKILNKKGKQGWWRGEIYGRVGWFPANYVEEDYS [Q36K], the figure is 0.132 ± 0.1.
As for KYFGTAKARYDFCARDRSELSLKEGDIIKILNKKGQQGWWRGEFYGRVGWFPANYVEEDYS [I44F], the figure is -0.257 ± 0.24.
With KYFGTAKARYDFCARDRSELSLKEGDIIKILAKKGQQGWWRGEIYGRVGWFPANYVEEDYS [N32A], the abundance fitness is -0.031 ± 0.075.
As for KYFGTAKARYDFCARDRSELSLKEGDIIKILNKKGQQGWWRGEIYGRVGWFPANYVNEDYS [E57N], the figure is -0.185 ± 0.16.
As for KYFGTAKARYDFCARDRSELSLKEGDIIKILNKKGQQGWWRGEIYGRVGWFPANYVPEDYS [E57P], the figure is -1.02 ± 0.27.
